Here are results for one molecule from doi:10.1101/2025.06.13.659407 (2025).

For the experiment, the target named is biotinylated preS1 peptide, residues 69–108 (hepatitis B virus (residues numbered …, C-terminal biotin)). Briefly: BLI.

B1: sEGF4–6-hFc (soluble fusion protein comprising SCARF2's EGF4–6 domains, with an N-terminal HA tag an (Fc fusion)
chain: GSYPYDVPDYAGSSACYCSATSRCDPQTGACLCHAGWWGRSCNNQCACNSSPCEQQSGRCQCRERTFGARCDRYCQCFRGRCHPVDGTCACEPGYRGKYCR
By koff is commonly meant the first-order rate constant of dissociation. Read a high koff as a short-lived complex. For B1, the koff amounted to 0.000289 s⁻¹.
